In publication PMC8269962 (Nature, 2021):

Target: H3-I53_dn5B trimer (H3 HA ectodomain fused to the N terminus of I53_dn5B) (influenza A virus (H3N2))
Experiment: SEC

Question: How did the stoichiometry N turn out when “H3-I53_dn5B trimer (H3 HA ectodomain fused to the N terminus of I53_dn5B)” was run?
Answer: 3
